Results as given in paper PMC3075490.

Molecular target: T1, [4Fe-4S]-NsrR-His6 (anaerobically purified) (Bacillus subtilis (JH642 background), UniProt O07573 1-146)
T1 sequence: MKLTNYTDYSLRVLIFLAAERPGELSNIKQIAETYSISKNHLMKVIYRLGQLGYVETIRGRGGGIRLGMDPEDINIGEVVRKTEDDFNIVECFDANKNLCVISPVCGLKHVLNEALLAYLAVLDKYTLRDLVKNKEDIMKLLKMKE
Test: EMSA

**Q.** Does GCATAACATGTATCTTAAATATTCCTTTCG (ssDNA) [nasD coding strand 30-mer oMN09-489] bind?
**A.** Result: no binding
